Data from publication PMC8258697 (The Journal of Biological Chemistry, 2021).
No end group written: not given here. *: point of attachment. Biotin = O=C1N[C@H]2[C@H](CS[C@H]2CCCCC(=O)*)N1

B1: biotinylated CBP-1 cofactor peptide (CREB-binding protein coactivator motif 1) (peptide)
peptide: Biotin-NLVPDAASKHKQLSELLRGGSGS
notes: coupled to Tb-streptavidin in the assay; also called CBP-1 peptide; CBP-derived peptide; source: bought: Eurogentec GmbH

Columns and labels:
Settings in all cases: both partners purified
label-free PPARγ LBD = target: T1, label-free PPARγ LBD (human, UniProt P37231-1 234-505); assay: AlphaScreen or HTRF; heterodimer coactivator recruitment; 100 nM label-free PPARγ LBD, 2 μM sGFP-RXRα LBD total mutant, 12 nM biotinylated CBP-1 on 12 nM Tb-SA; rosiglitazone titrated (also with 50 μM SR11237); 0.1% CHAPS, 1% DMSO, RT
T1 construct: PPARγ isoform 2 LBD, human, UniProt P37231-1, residues 234-505; also called PPARγ LBD without sGFP-tag; PPARγ LBD devoid of any label; source: E. coli T7 express, coexpressed with GroEL/ES, purified (Ni IMAC, TEV, reverse IMAC, SEC); not shown: His10, N-terminal, cleaved
T1 sequence (looked up): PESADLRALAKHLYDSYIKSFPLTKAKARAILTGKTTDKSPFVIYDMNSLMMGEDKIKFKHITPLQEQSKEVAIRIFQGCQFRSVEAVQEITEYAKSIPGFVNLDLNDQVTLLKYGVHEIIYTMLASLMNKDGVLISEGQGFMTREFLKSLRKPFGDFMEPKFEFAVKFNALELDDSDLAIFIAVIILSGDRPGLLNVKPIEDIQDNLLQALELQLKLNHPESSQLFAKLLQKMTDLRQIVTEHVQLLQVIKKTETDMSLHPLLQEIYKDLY

sGFP-PPARγ LBD = target: T2, sGFP-PPARγ LBD (human, UniProt P37231-1 234-505); assay: AlphaScreen or HTRF; unlabeled RXRα total mutant LBD titrated (up to 8 μM) against 100 nM sGFP-PPARγ LBD, 12 nM Tb-SA, 12 nM biotinylated CBP-1; no ligand (or SR11237 at ≤1 nM)
T2 construct: PPARγ isoform 2 LBD, human, UniProt P37231-1, residues 234-505; also called PPARγ coupled to sGFP; source: E. coli T7 express, coexpressed with GroEL/ES, purified (Ni IMAC, TEV, reverse IMAC, SEC); not shown: His10, N-terminal, cleaved; sGFP, N-terminal, kept
T2 sequence (looked up): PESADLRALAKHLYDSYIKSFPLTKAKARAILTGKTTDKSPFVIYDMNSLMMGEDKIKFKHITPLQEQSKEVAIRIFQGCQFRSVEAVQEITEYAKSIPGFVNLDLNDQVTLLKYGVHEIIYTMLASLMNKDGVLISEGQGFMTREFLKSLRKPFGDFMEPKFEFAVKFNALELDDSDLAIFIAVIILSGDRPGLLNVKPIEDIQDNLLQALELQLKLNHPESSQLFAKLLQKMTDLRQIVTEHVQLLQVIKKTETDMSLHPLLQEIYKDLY

[1] = target: B1; assay: as above

B1
binding result (label-free PPARγ LBD): binds

B2: free RXRα total mutant LBD (unlabeled) (domain or fragment, human, UniProt P19793-1 223-462, looked up)
chain: TSSANEDMPVERILEAELAVEPKTETYVEANMGLNPSSPNDPVTNICQAADKQLFTLTEWAERIPHFSELPLDDQTILLRAGWNELLIASFSHRSIAVKDGILLATGLHVHRNSAHSAGVGAIFDRVLTELVSKMRDMQMDKTELGCLRAIVLFNPDSKGLSNPAEVEALREKVYASLEAYCKHKYPEQPGRFAKLLLRLPALRSIGLKCLEHLFFFKLIGDTPIDTYLMRMLEAPHQMT
notes: retinoid X receptor alpha (RXRα) LBD, human, residues 223-462 (pMal construct), five AF-2 mutations; also called unlabeled recruitment-incapable RXRα LBD (total mutant); unlabeled mutant RXRα LBD; source: E. coli T7 express, coexpressed with GroEL/ES, purified (Ni IMAC, MBP-TEV, amylose flow through, SEC); not shown: MBP, N-terminal, cleaved; His8, N-terminal, cleaved
binding result (sGFP-PPARγ LBD): binds

B3: sGFP-PPARγ LBD:RXRα total mutant LBD (unlabeled) heterodimer (complex, human)
chain 1: PESADLRALAKHLYDSYIKSFPLTKAKARAILTGKTTDKSPFVIYDMNSLMMGEDKIKFKHITPLQEQSKEVAIRIFQGCQFRSVEAVQEITEYAKSIPGFVNLDLNDQVTLLKYGVHEIIYTMLASLMNKDGVLISEGQGFMTREFLKSLRKPFGDFMEPKFEFAVKFNALELDDSDLAIFIAVIILSGDRPGLLNVKPIEDIQDNLLQALELQLKLNHPESSQLFAKLLQKMTDLRQIVTEHVQLLQVIKKTETDMSLHPLLQEIYKDLY
chain 2: TSSANEDMPVERILEAELAVEPKTETYVEANMGLNPSSPNDPVTNICQAADKQLFTLTEWAERIPHFSELPLDDQTILLRAGWNELLIASFSHRSIAVKDGILLATGLHVHRNSAHSAGVGAIFDRVLTELVSKMRDMQMDKTELGCLRAIVLFNPDSKGLSNPAEVEALREKVYASLEAYCKHKYPEQPGRFAKLLLRLPALRSIGLKCLEHLFFFKLIGDTPIDTYLMRMLEAPHQMT
notes: PPARγ isoform 2 LBD, human, UniProt P37231-1, residues 234-505; RXRα LBD, human, residues 223-462, five AF-2 mutations; also called LBD:LBD heterodimer with RXRα; source: mixed from the purified E. coli proteins (100 nM sGFP-PPARγ LBD, RXRα total mutant LBD titrated); not shown: His10, N-terminal, cleaved; sGFP, N-terminal, kept; MBP, N-terminal, cleaved; His8, N-terminal, cleaved
CBP-1 recruitment relative to that seen with rosiglitazone (%) [1]: ≤ 5%
